Numbering of substitutions follows the chain as printed.
T1: XENP23311 (His-tagged NKG2D-Fc) (human, UniProt P26718 78-216)
T1 chain: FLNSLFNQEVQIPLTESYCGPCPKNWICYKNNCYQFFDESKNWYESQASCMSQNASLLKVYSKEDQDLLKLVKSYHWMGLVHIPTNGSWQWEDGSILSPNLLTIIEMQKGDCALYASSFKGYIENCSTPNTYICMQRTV

T2: B7H3 (human, UniProt Q5ZPR3 29-466)
T2 chain: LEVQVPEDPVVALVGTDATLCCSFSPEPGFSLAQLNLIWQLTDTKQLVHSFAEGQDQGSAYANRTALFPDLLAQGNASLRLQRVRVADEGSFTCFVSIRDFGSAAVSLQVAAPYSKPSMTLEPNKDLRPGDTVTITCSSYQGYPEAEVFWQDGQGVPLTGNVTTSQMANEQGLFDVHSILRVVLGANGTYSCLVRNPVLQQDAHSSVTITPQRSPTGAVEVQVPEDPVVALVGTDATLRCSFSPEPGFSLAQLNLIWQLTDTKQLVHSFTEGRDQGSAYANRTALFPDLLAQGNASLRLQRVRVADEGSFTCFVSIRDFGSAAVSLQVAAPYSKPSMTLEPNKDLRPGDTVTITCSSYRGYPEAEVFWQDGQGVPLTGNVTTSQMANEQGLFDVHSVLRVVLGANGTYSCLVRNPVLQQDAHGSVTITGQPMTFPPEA

B1: XENP41021 (antibody)
chain 1: EVQLLESGGGLVQPGGSLRLSCAVSGFSLSSYGVIWVRQAPGKGLEYVSWVSSGGSTNYASSVKGRFTISRDTSKNTVYLQMNSLRAEDTAVYFCARGATNSGTDIWGPGTLVTVSSASTKGPSVFPLAPSSKSTSGGTAALGCLVKDYFPEPVTVSWNSGALTSGVHTFPAVLQSSGLYSLSSVVTVPSSSLGTQTYICNVNHKPSDTKVDKKVEPKSCDKTHTCPPCPAPELLGGPSVFLFPPKPKDTLMISRTPEVTCVVVDVSHEDPEVKFNWYVDGVEVHNAKTKPREEEYNSTYRVVSVLTVLHQDWLNGKEYKCKVSNKALPAPIEKTISKAKGQPREPQVYTLPPSREEMTKNQVSLTCDVSGFYPSDIAVEWESDGQPENNYKTTPPVLDSDGSFFLYSKLTVDKSRWEQGDVFSCSVMHEALHNHYTQKSLSLSPGK
chain 2: not shown
chain 3: DIVMTQSPSSLSASVGDRVTITCRASQSINSWLSWYQQKPGKPPKLLIYGASNLASGVPSRFKGSGSGTDFTLTISSLQPEDFATYYCQNNYGIIAAGATFGGGTKVEIKRTVAAPSVFIFPPSDEQLKSGTASVVCLLNNFYPREAKVQWKVDNALQSGNSQESVTEQDSKDSTYSLSSTLTLSKADYEKHKVYACEVTHQGLSSPVTKSFNRGEC
B2: XENP41032 (antibody)
chain 1: B1 chain 1 with S239D, I332E
chain 2: EVQLLESGGGLVQPGGSLRLSCAVSGFSLSSYGVIWVRQAPGKGLEYVSWVSSGGSTNYASSVKGRFTISRDTSKNTVYLQMNSLRAEDTAVYFCARGATNSGTDIWGPGTLVTVSSGKPGSGKPGSGKPGSGKPGSDIVMTQSPSSLSASVGDRVTITCRASQSINSWLSWYQQKPGKPPKLLIYGASNLASGVPSRFKGSGSGTDFTLTISSLQPEDFATYYCQNNYGIIAAGATFGGGTKVEIKEPKSSDKTHTCPPCPAPELLGGPSVFLFPPKPKDTLMISRTPEVTCVVVDVSHEDPEVKFNWYVDGVEVHNAKTKPREEQYNSTYRVVSVLTVLHQDWLNGKEYKCKVSNKALPAPEEKTISKAKGQPREPQVYTLPPSREQMTKNQVKLTCLVKGFYPSDIAVEWESNGQPENNYKTTPPVLDSDGSFFLYSKLTVDKSRWQQGNVFSCSVMHEALHNHYTQKSLSLSPGK
chain 3: B1 chain 3
B3: XENP41036 (antibody)
chain 1: B1 chain 1 with I332E
chain 2: B2 chain 2 with S271D, E364I
chain 3: B1 chain 3
B4: XENP41029 (antibody)
chain 1: B1 chain 1 with S239D
chain 2: not shown
chain 3: B1 chain 3
B5: XENP41023 (antibody)
chain 1: B1 chain 1 with S239D
chain 2: B2 chain 2 with S271D, E364I
chain 3: B1 chain 3
B6: XENP41026 (antibody)
chain 1: B1 chain 1
chain 2: B2 chain 2 with S271D, E364I
chain 3: B1 chain 3
B7: XENP41024 (antibody)
chain 1: B1 chain 1 with I332E
chain 2: B2 chain 2
chain 3: B1 chain 3
B8: XENP42653 (bispecific antibody)
heavy: B1 chain 1
chain: not shown
light: B1 chain 3
B9: XENP42655 (bispecific antibody)
heavy: B1 chain 1
chain: not shown
light: B1 chain 3
B10: XENP40375_H1L1 (antibody)
chain 1: B1 chain 1
chain 2: not shown
chain 3: B1 chain 3
B11: XENP42652 (bispecific antibody)
heavy: B1 chain 1
chain: not shown
light: B1 chain 3
B12: XENP42654 (bispecific antibody)
heavy: B1 chain 1
chain: not shown
light: B1 chain 3
B13: XENP38098 (LB_1002, Bivalent) (antibody, V domains shown)
VH: EVQLVESGGGLVKPGGSLRLSCAASGFTFSSYSMNWVRQAPGKGLEWVSSISSSSSYIYYADSVKGRFTISRDNAKNSLYLQMNSLRAEDTAVYYCARGAPMGAAAGWFDPWGQGTLVTVSS
VL: DIQMTQSPSSVSASVGDRVTITCRASQGISSWLAWYQQKPGKAPKLLIYAASSLQSGVPSRFSGSGSGTDFTLTISSLQPEDFATYYCQQGVSFPRTFGGGTKVEIKR
B14: XENP38097 (LB_1001, Bivalent) (antibody, V domains shown)
VH: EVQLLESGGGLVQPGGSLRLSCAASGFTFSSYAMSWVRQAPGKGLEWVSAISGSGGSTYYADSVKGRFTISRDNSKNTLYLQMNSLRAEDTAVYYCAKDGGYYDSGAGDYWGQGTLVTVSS
VL: B13 VL with S30D, F94Y
B15: XENP38093 (1D2B4, Bivalent) (antibody, V domains shown)
VH: EVQLLESGGGLVQPGGSLRLSCAASGFTFSSFGMSWVRQAPGKGLEWVSTISGSGSTTYYADSVKGRFTISRDNSKNTLYLQMNSLRAEDTAVYYCAKGVFSEWHYYFDYWGQGTLVTVSS
VL: not shown
B16: 2E4A3_H1.22_L1 (antibody, V domains shown)
VH: QVQLVQSGAEVKKPGASVKVSCKASGYIFTNNYMHWVRQAPGQGLEWMGIISPSVGRTAYAQKFQGRVTMTRDTSTSTVYMELSSLRSEDTAVYYCARGGGSSPRLDYWGQGTLVTVSS
VL: not shown
B17: 38E2_H2_L1.1 (antibody, V domains shown)
VH: EVQLLESGGGLVQPGGSLRLSCAVSGFSLSSYGVIWVRQAPGKGLEYVSWVSSGGSTNYASSVKGRFTISRDTSKNTVYLQMNSLRAEDTAVYFCARGATNSGTDIWGPGTLVTVSS
VL: DIVMTQSPSSLSASVGDRVTITCRASQSINSWLSWYQQKPGKPPKLLIYGASNLASGVPSRFKGSGSGTDFTLTISSLQPEDFATYYCQNNYGIIAAGATFGGGTKVEIK

Each binder was assayed against CD16 (UniProt P08637 17-208) (assay: not given).
Sequence of CD16 (P08637 17-208): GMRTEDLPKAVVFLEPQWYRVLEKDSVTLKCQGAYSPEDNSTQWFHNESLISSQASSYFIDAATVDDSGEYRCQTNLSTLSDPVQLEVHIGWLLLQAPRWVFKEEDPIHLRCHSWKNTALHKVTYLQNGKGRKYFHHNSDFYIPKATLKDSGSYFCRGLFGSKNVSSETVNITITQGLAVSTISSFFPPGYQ

Row | Kd | Binder
1 | 0.417 µM | B1
2 | 0.0602 µM | B2
3 | 0.104 µM | B3
4 | 0.229 µM | B4
5 | 0.102 µM | B5
6 | 0.219 µM | B6
7 | 0.12 µM | B7

Molecular target: T1, XENP23311 (His-tagged NKG2D-Fc)
Assay: Biacore; 1:1 Langmuir

Row | Kd | Binder
8 | 14.8 µM | B8
9 | 4.19 µM | B9
10 | 0.0155 µM | B10
11 | 0.253 µM | B11
12 | 0.36 µM | B12

Molecular target: T1, XENP23311 (His-tagged NKG2D-Fc)
Assay: Biacore; steady state

Row | Kd | Binder
13 | 5.41 µM | B8
14 | 1.49 µM | B9
15 | 0.019 µM | B10
16 | 0.162 µM | B11
17 | 0.19 µM | B12

Molecular target: T1, XENP23311 (His-tagged NKG2D-Fc)
Assay: Octet; bivalent format

Row | Kd | Binder
18 | 0.00049 µM | B13
19 | 0.00042 µM | B14
20 | 0.00052 µM | B15

Molecular target: T2, B7H3
Assay: -; monovalent, 1+1 bispecific format

Row | Kd | Binder
21 | 0.0061 µM | B16
22 | 0.0005 µM | B17
